Experimental data published in patent US20110165161A1, “ANTI-EPCAM ANTIBODIES THAT INDUCE APOPTOSIS OF CANCER CELLS AND METHODS USING SAME” (priority 2009, published 2011).

What was measured:
EGFI-Cr1 Q24A = molecular target: T1, EGFI-Cr1 Q24A (human, UniProt P16422 25-63); test: direct ELISA, coated EGFI-Cr1 fusion, 0.1 µg/ml antibody
T1 construct: not shown: The fused constant region of human immunoglobulin gamma 1 heavy chain (Cr1)
T1 chain: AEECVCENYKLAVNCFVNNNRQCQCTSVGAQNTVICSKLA
Experimental: (§1) A direct ELISA was used for testing the reactivity of anti-EpCAM antibodies toward variant EpCAM mutants. Briefly, purified EpCAM EGF-1 fusion proteins (WT, Q24A, E25K, E26D, A35T, N37R, F39A, V40E, N41A, N42E, N43A, R44G, Q45A, Q47A or T49A) and irrelevant control (CEA-Cr1) were pre-diluted to 0.5 μg/ml in coating buffer (8.4 g NaHCO₃, 3.4 g Na₂CO₃ in 1 L H₂O, pH 9.5) and aliquoted (100 μl/well) into 96-well plates. […] Plates were then washed 3 times with PBST followed by the addition of the enzyme substrate TMB (BD Biosciences, Cat. No. 555214). […] The optical densities at 450 nm wavelength were measured on an ELISA plate reader.

EGFI-Cr1 N37R = molecular target: T2, EGFI-Cr1 N37R (human); test: as above
T2 construct: not shown: The fused constant region of human immunoglobulin gamma 1 heavy chain (Cr1)
T2 chain: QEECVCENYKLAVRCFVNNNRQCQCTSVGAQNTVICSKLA
Experimental: as §1

EGFI-Cr1 E25K = molecular target: T3, EGFI-Cr1 E25K (human, UniProt P16422 24-63); test: as above
T3 construct: not shown: The fused constant region of human immunoglobulin gamma 1 heavy chain (Cr1)
T3 chain: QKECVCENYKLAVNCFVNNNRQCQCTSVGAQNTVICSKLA
Experimental: as §1

[1] = molecular target: T4, EGFI-Cr1 wild type (first EGF-like repeat of human EpCAM fused to the constant region of human immunoglobulin … (human, UniProt P01857-1 99-330 = IgG part)); test: as above
T4 construct: cDNA covered aa 1-63; Expressed in COS-7 cells; also called WT; EpCAM EGF-1 fusion protein WT
Experimental: as §1

EGFI-Cr1 N41A = molecular target: T5, EGFI-Cr1 N41A (human, UniProt P16422 24-63); test: as above
T5 construct: not shown: The fused constant region of human immunoglobulin gamma 1 heavy chain (Cr1)
T5 chain: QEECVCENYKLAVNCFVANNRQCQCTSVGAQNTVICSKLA
Experimental: as §1

EGFI-Cr1 F39A = molecular target: T6, EGFI-Cr1 F39A (human, UniProt P16422 24-63); test: as above
T6 construct: not shown: The fused constant region of human immunoglobulin gamma 1 heavy chain (Cr1)
T6 chain: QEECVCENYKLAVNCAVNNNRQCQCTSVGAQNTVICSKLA
Experimental: as §1

EGFI-Cr1 N43A = molecular target: T7, EGFI-Cr1 N43A (human, UniProt P16422 24-63); test: as above
T7 construct: not shown: the constant region of human immunoglobulin gamma 1 heavy chain (Cr1) fused at the C-terminus
T7 chain: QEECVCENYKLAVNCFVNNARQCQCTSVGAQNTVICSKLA
Experimental: as §1

EGFI-Cr1 Q47A = molecular target: T8, EGFI-Cr1 Q47A (human, UniProt P16422 24-63); test: as above
T8 construct: not shown: the constant region of human immunoglobulin gamma 1 heavy chain (Cr1) fused at the C-terminus
T8 chain: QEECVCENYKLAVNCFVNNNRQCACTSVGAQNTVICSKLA
Experimental: as §1

EGFI-Cr1 V40E = molecular target: T9, EGFI-Cr1 V40E (human); test: as above
T9 construct: not shown: The fused constant region of human immunoglobulin gamma 1 heavy chain (Cr1)
T9 chain: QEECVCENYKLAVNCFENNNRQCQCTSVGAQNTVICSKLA
Experimental: as §1

EGFI-Cr1 N42E = molecular target: T10, EGFI-Cr1 N42E (human, UniProt P16422 24-63); test: as above
T10 construct: not shown: the constant region of human immunoglobulin gamma 1 heavy chain (Cr1) fused at the C-terminus
T10 chain: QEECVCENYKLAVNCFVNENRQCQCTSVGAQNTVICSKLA
Experimental: as §1

EGFI-Cr1 Q45A = molecular target: T11, EGFI-Cr1 Q45A (human, UniProt P16422 24-63); test: as above
T11 construct: not shown: the constant region of human immunoglobulin gamma 1 heavy chain (Cr1) fused at the C-terminus
T11 chain: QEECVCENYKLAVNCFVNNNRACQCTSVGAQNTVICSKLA
Experimental: as §1

EGFI-Cr1 R44G = molecular target: T12, EGFI-Cr1 R44G (human, UniProt P16422 24-63); test: as above
T12 construct: not shown: the constant region of human immunoglobulin gamma 1 heavy chain (Cr1) fused at the C-terminus
T12 chain: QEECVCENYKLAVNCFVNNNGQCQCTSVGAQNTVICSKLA
Experimental: as §1

EGFI-Cr1 A35T = molecular target: T13, EGFI-Cr1 A35T (human, UniProt P16422 24-63); test: as above
T13 construct: not shown: The fused constant region of human immunoglobulin gamma 1 heavy chain (Cr1)
T13 chain: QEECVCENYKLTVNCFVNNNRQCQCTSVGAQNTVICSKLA
Experimental: as §1

EGFI-Cr1 E26D = molecular target: T14, EGFI-Cr1 E26D (human, UniProt P16422 24-63); test: as above
T14 construct: not shown: The fused constant region of human immunoglobulin gamma 1 heavy chain (Cr1)
T14 chain: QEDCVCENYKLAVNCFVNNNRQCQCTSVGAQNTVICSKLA
Experimental: as §1

EGFI-Cr1 T49A = molecular target: T15, EGFI-Cr1 T49A (human, UniProt P16422 24-63); test: as above
T15 construct: not shown: the constant region of human immunoglobulin gamma 1 heavy chain (Cr1) fused at the C-terminus
T15 chain: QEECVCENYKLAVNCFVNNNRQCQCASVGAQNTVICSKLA
Experimental: as §1

[2] = molecular target: T16, human EpCAM (epithelial cell adhesion/activating molecule) (human, UniProt P16422 24-314); test: cell-based or functional assay
T16 sequence: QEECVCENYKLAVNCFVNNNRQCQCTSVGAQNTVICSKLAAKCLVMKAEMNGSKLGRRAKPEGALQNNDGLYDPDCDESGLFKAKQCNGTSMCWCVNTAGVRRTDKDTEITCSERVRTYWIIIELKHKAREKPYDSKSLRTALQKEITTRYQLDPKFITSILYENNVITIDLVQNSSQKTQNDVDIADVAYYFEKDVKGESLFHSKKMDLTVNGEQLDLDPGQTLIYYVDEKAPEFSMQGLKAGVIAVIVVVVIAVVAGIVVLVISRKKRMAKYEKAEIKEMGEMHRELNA

[3] = molecular target: T16, human EpCAM (epithelial cell …); test: flow cytometry, CHO/EpCAM cells, 0.1 µg/ml antibody
Experimental: A 300× dilution of human cell hyper-immune serum (HPS 300×) was used as binding positive control for both cell lines here. After 1 hr incubation at 4° C., cells were washed twice with 200 μl FACS buffer (1×PBS containing 1% FBS), stained with 100 μl of 1 μg/ml goat-anti-mouse IgG-PE (Southern Biotech, Cat. No. 1032-09) in FACS buffer and then incubated at 4° C. for 30 min. Cells were washed thrice with FACS buffer and analyzed by flow cytometry (BD LSR, BD Life Sciences).

[4] = molecular target: T16, human EpCAM (epithelial cell …); test: cell-based or functional assay; remark: listed apart in the source

relative binding activity (% of WT) (EGFI-Cr1 Q24A): 99%
relative binding activity (% of WT) (EGFI-Cr1 N37R): 94%
relative binding activity (% of WT) (EGFI-Cr1 E25K): 93%
relative binding activity (% of WT) [1]: 100%
relative binding activity (% of WT) (EGFI-Cr1 N41A): 12%
relative binding activity (% of WT) (EGFI-Cr1 F39A): 97%
relative binding activity (% of WT) (EGFI-Cr1 N43A): 5%
relative binding activity (% of WT) (EGFI-Cr1 Q47A): 96%
relative binding activity (% of WT) (EGFI-Cr1 V40E): 93%
relative binding activity (% of WT) (EGFI-Cr1 N42E): 58%
relative binding activity (% of WT) (EGFI-Cr1 Q45A): 89%
relative binding activity (% of WT) (EGFI-Cr1 R44G): 7%
relative binding activity (% of WT) (EGFI-Cr1 A35T): 95%
relative binding activity (% of WT) (EGFI-Cr1 E26D): 97%
relative binding activity (% of WT) (EGFI-Cr1 T49A): 95%
% Annexin V/PI-positive cells, DLD-1, 1.0 µg/ml mAb [2]: 18%
% Annexin V/PI-positive cells, DLD-1, 3.0 µg/ml mAb [2]: 41%
% Annexin V/PI-positive cells, DLD-1, 10 µg/ml mAb [2]: 48%
% Annexin V/PI-positive cells, FaDu, 1.0 µg/ml mAb [2]: 34%
% Annexin V/PI-positive cells, FaDu, 3.0 µg/ml mAb [2]: 45%
% Annexin V/PI-positive cells, FaDu, 10 µg/ml mAb [2]: 46%
% Annexin V/PI-positive cells, LNCaP, 1.0 µg/ml mAb [2]: 40%
% Annexin V/PI-positive cells, LNCaP, 3.0 µg/ml mAb [2]: 39%
% Annexin V/PI-positive cells, LNCaP, 10 µg/ml mAb [2]: 40%
% Annexin V/PI-positive cells, NCI-H520, 1.0 µg/ml mAb [2]: 41%
% Annexin V/PI-positive cells, NCI-H520, 3.0 µg/ml mAb [2]: 44%
% Annexin V/PI-positive cells, NCI-H520, 10 µg/ml mAb [2]: 52%
% Annexin V/PI-positive cells, NCI-N87, 1.0 µg/ml mAb [2]: 45%
% Annexin V/PI-positive cells, NCI-N87, 3.0 µg/ml mAb [2]: 48%
% Annexin V/PI-positive cells, NCI-N87, 10 µg/ml mAb [2]: 51%
% Annexin V/PI-positive cells, NIH:OVCAR-3, 1.0 µg/ml mAb [2]: 43%
% Annexin V/PI-positive cells, NIH:OVCAR-3, 3.0 µg/ml mAb [2]: 55%
% Annexin V/PI-positive cells, NIH:OVCAR-3, 10 µg/ml mAb [2]: 56%
% Annexin V/PI-positive cells, T-47D, 1.0 µg/ml mAb [2]: 36%
% Annexin V/PI-positive cells, T-47D, 3.0 µg/ml mAb [2]: 48%
% Annexin V/PI-positive cells, T-47D, 10 µg/ml mAb [2]: 45%
MFI [3]: 3720 MFI
% of Annexin V + PI staining (untreated background subtracted), NCI-H358, 10 µg/ml mAb, Exp1 [4]: 41%
% of Annexin V + PI staining (untreated background subtracted), NCI-H358, 10 µg/ml mAb, Exp2 [4]: 32%
% of Annexin V + PI staining (untreated background subtracted), NCI-H358, 10 µg/ml mAb, Exp3 [4]: 47%
% of Annexin V + PI staining (untreated background subtracted), NCI-H358, 10 µg/ml mAb, Exp4 [4]: 44%
% of Annexin V + PI staining (untreated background subtracted), NCI-H358, 10 µg/ml mAb, Exp5 [4]: 33%
B1: murine monoclonal antibody 2D11 (antibody, mouse IgG1, V domains shown)
VH: QIQLVQSGPELKKPGETVKISCKASGYTFTNYGMNWVKQAPGKGLKWMGWINTNTGEATYVEEFKGRVVFSLETSASTAYLQINNLKNEDTATYFCARIGYVWYFDVWGAGTTVTVSS
VL: DIVMSQSPSSLAVSAGEKVTMSCKSSQSLFSSRTRKNYLAWYQQKPGQSPKLLIYWASTRESGVPDRFTGSGSGTDFTLTINSVQAEDLAVYYCKHSNNLFTFGSGTKLEIKR
notes: Mouse IgG1, kappa, from hybridoma; also called m322-2D11.19
